Patent publication US20180147257A1

How the values were obtained:
Test in all cases: cell-based or functional assay
CD163 on YT-1 cells = CD163 on YT-1 cells (UniProt Q86VB7)
FLT1 on YT-1 cells = FLT1 on YT-1 cells (UniProt P17948)
HLA-E on YT-1 cells = HLA-E on YT-1 cells (UniProt P13747)
LTβR on YT-1 cells = LTβR on YT-1 cells (UniProt P36941)
ROR2 on YT-1 cells = ROR2 on YT-1 cells (UniProt Q01974)
ROR2 on YT-1 cells, sequence (Q01974 34-943 limits assumed): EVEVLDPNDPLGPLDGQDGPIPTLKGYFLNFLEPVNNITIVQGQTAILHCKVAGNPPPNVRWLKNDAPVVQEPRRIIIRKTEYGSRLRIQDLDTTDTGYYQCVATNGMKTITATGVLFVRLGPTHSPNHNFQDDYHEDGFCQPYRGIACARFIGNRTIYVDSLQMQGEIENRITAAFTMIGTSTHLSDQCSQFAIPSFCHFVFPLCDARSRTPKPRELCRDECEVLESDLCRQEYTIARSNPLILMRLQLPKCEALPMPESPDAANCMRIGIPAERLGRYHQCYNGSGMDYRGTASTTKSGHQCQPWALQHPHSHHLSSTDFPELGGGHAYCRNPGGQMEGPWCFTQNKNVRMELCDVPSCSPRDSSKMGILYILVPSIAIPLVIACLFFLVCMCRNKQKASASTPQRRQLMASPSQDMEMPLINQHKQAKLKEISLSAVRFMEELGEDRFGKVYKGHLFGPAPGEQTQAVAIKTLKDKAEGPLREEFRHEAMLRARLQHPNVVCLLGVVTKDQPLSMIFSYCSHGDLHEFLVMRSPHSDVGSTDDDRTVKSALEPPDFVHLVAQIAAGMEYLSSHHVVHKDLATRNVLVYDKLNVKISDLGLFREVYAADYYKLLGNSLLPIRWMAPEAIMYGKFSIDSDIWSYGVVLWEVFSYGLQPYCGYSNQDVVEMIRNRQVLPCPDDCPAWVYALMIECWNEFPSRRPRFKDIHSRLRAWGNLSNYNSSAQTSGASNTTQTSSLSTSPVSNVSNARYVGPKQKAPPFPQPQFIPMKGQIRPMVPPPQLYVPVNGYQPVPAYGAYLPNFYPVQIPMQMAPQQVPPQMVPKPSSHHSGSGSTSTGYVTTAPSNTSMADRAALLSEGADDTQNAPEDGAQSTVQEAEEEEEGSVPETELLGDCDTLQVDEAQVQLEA

CD163 on YT-1 cells, sequence (Q86VB7 42-1156): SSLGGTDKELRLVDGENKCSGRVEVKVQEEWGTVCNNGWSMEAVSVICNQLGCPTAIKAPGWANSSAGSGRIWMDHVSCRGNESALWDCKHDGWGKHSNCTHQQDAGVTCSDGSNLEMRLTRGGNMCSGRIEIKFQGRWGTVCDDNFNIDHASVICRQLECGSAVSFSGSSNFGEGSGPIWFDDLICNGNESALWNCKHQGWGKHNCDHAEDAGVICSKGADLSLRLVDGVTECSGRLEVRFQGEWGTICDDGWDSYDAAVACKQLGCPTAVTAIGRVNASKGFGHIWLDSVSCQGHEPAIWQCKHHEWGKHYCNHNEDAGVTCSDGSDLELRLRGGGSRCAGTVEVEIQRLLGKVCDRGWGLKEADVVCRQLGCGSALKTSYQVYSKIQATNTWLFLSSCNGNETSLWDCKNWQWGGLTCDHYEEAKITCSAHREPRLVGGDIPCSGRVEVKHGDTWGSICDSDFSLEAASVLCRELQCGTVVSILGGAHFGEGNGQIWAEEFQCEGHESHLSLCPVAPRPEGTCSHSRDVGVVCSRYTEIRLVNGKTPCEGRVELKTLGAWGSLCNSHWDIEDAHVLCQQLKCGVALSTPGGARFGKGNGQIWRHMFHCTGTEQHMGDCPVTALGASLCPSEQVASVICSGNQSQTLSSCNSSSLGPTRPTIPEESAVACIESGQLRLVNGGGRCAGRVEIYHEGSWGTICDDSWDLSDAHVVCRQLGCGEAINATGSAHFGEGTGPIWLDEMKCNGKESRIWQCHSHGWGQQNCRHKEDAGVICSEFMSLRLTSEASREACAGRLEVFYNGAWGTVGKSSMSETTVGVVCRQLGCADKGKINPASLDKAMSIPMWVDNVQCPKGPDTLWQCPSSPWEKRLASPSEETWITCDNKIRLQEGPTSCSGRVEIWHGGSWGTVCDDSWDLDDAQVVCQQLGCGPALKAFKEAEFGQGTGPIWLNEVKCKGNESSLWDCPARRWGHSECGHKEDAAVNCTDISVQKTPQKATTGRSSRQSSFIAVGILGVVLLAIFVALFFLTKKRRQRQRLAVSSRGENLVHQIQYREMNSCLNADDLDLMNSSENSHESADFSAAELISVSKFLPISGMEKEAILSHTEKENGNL
FLT1 on YT-1 cells, sequence (P17948 27-1338 limits assumed): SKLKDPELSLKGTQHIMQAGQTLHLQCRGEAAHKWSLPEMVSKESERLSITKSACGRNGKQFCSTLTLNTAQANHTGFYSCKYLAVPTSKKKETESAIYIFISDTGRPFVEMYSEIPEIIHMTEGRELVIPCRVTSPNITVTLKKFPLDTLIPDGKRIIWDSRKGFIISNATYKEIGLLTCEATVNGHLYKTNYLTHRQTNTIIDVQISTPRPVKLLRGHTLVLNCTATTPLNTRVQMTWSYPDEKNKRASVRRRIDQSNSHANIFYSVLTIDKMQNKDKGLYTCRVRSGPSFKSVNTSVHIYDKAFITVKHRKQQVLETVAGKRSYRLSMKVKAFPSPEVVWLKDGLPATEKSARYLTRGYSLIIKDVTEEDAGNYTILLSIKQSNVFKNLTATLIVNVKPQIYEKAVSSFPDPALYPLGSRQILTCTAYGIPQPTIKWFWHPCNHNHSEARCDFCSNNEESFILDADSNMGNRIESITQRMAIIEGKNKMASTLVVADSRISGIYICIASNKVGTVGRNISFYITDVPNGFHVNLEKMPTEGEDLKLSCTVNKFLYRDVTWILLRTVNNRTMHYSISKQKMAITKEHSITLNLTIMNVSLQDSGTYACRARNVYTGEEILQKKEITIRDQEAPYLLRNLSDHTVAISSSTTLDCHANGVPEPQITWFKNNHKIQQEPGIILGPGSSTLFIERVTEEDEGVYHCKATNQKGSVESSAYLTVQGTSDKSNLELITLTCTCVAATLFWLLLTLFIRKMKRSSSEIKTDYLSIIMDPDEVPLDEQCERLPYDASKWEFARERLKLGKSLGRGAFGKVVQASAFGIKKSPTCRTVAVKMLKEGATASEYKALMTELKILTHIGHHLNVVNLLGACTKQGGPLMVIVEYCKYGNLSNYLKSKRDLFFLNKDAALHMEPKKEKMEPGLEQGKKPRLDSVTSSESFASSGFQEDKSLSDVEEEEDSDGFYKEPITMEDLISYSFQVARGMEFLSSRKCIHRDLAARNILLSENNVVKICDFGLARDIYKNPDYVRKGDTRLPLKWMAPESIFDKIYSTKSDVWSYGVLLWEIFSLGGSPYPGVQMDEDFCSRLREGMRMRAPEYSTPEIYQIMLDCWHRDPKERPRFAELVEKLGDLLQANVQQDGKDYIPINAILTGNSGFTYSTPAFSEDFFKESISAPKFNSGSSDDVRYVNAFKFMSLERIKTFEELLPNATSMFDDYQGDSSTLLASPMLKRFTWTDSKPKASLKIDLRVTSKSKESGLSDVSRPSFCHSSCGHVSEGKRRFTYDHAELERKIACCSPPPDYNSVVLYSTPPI
HLA-E on YT-1 cells, sequence (P13747 22-358 limits assumed): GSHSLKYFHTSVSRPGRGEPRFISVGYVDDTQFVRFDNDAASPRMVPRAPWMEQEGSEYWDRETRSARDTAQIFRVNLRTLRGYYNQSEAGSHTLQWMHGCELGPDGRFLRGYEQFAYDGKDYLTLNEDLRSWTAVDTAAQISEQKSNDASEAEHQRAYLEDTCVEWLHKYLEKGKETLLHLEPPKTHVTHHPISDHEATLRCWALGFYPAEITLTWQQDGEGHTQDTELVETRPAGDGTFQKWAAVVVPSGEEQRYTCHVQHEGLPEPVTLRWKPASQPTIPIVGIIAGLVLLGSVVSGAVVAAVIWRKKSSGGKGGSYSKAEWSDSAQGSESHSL
LTβR on YT-1 cells, sequence (P36941 31-435 limits assumed): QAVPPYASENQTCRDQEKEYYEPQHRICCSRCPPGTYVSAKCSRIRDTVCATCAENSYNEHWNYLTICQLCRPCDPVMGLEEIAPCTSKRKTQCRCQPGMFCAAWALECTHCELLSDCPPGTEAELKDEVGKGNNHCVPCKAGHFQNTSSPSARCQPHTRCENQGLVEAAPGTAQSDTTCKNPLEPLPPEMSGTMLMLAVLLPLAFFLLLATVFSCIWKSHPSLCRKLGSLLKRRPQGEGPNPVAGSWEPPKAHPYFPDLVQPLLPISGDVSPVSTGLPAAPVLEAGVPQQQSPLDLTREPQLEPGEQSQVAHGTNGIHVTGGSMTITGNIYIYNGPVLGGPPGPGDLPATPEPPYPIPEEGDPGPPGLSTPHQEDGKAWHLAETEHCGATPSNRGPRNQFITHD

Substance “fluorescently coupled BTN3A ectodomain fused to the Fc fragment of human IgG4 (Fc fusion)” has a Log 10 fold change of sgRNAs in YT-1 GeCKO library cells sorted for non-binding to BTN3A-IgG4 (Log 10 fold change) (CD163 on YT-1 cells) of 3.56, a Log 10 fold change of sgRNAs in YT-1 GeCKO library cells sorted for non-binding to BTN3A-IgG4 (Log 10 fold change) (FLT1 on YT-1 cells) of 3.7 and a Log 10 fold change of sgRNAs in YT-1 GeCKO library cells sorted for non-binding to BTN3A-IgG4 (Log 10 fold change) (HLA-E on YT-1 cells) of 3.66. The Log 10 fold change of sgRNAs in YT-1 GeCKO library cells sorted for non-binding to BTN3A-IgG4 (Log 10 fold change) (LTβR on YT-1 cells) was 3.69 and the Log 10 fold change of sgRNAs in YT-1 GeCKO library cells sorted for non-binding to BTN3A-IgG4 (Log 10 fold change) (ROR2 on YT-1 cells) was 3.54.
